Results as given in PMC3762189.

What was measured:
[1] = molecular target: G-actin (rabbit muscle actin monomers) (rabbit) (UniProt P68135); assay: fluorescence polarisation; competition: anisotropy of 50 nM Rhodamine-VCA with 150 nM G-actin and increasing VCA or VCA mutants; 10 mM Hepes pH 7.0, 50 mM KCl, 1 mM MgCl2, 1 mM EGTA, 1 mM DTT, 0.2 mM ATP, 350 nM Latrunculin B; KD is the mean of at least three fits
[2] = molecular target: actin filaments (33% Oregon-Green actin), filament sides (rabbit) (UniProt P68135); assay: single-molecule TIRF microscopy; during active branching: 1 µM 33% Oregon-Green actin, 5 nM Arp2/3 complex, 50 nM VCA and 2 nM Alexa568-cortactin; average lifetimes for each binding class
[3] = molecular target: branch junction (bovine Arp2/3 complex with mother and daughter actin filaments) (bovine | rabbit) (UniProt P61157); assay: as above
[4] = molecular target: actin filaments (33% Oregon-Green actin), filament sides (rabbit) (UniProt P68135); assay: single-molecule TIRF microscopy; 2 nM Alexa568-cortactin (1–336) on polymerizing filaments of 1 µM 33% Oregon-Green actin, no Arp2/3 complex; filaments tethered by biotinylated myosin; lifetimes fit with a single exponential
[5] = molecular target: actin filaments (33% Oregon-Green actin), filament sides (rabbit) (UniProt P68135); assay: single-molecule TIRF microscopy; preformed branched networks (1 µM 33% Oregon-Green actin, 5 nM Arp2/3 complex, 30 nM VCA, ~6 min), then 1.5 nM Alexa568-cortactin and 0.1 µM actin monomers; koff from lifetimes, KD from the average fraction bound, kon calculated from KD and koff
[6] = molecular target: branch junction (bovine Arp2/3 complex with mother and daughter actin filaments) (bovine | rabbit) (UniProt P61157); assay: as above
[7] = molecular target: branch junction (bovine Arp2/3 complex with mother and daughter actin filaments) (bovine | rabbit) (UniProt P61157); assay: single-molecule TIRF microscopy; during active branching: 1 µM 33% Oregon-Green actin, 10 nM Arp2/3 complex, 350 nM VCA and 10 nM Alexa568-NtA(1-48)
[8] = molecular target: branch junction (bovine Arp2/3 complex with mother and daughter actin filaments) (bovine | rabbit) (UniProt P61157)

Chain of cortactin NtA (residues 1–84) (Q60598 1-84): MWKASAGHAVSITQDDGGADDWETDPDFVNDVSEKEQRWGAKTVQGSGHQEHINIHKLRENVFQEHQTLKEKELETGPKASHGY

Substance: N-WASP-VCA(R442A) (from UniProt Q95107 1-505) (domain or fragment)
- Kd [1]: 11.2 µM

Substance: Alexa568-cortactin (residues 1–336) (from UniProt Q60598 1-336) (domain or fragment)
- lifetime on filament sides during active branching [2]: 8 s
- average lifetime at the junction after nucleation [3]: 62 s
- average lifetime before nucleation (nascent branch junction) [3]: 6.5 s
- average lifetime on existing branch junctions during active branching [3]: 29.5 s
- koff [4]: 0.05 s⁻¹
- Kd [5]: 5.21 µM
- koff [5]: 0.063 s⁻¹
- kon [5]: 12100 M⁻¹ s⁻¹
- Kd [6]: 0.017 µM
- average lifetime on branch junctions (preformed filament reactions) [6]: 29.1 s
- koff [6]: 0.034 s⁻¹
- kon [6]: 2e+06 M⁻¹ s⁻¹

Substance: Alexa568-NtA(1-48) (from UniProt Q60598 1-48) (domain or fragment)
- time bound after daughter filament nucleation (one event shown) [7]: 4.5 s

Substance: N-WASP-VCA(E455R) (from UniProt Q95107 1-505) (domain or fragment)
- Kd [1]: 0.63 µM

Substance: cortactin NtA (residues 1–84) (from UniProt Q60598 1-84) (domain or fragment)
- concentration of NtA (1–84) required for half-maximal synergy with GST-VCA (maximum rate of pyrene-actin polymerization; 2 µM 15% pyrene-actin, 20 nM Arp2/3 complex, 250 nM GST-VCA) [8]: 11 µM
